In patent publication CN114874324A (dated 2022):

T1: 可溶性LAG-3蛋白标准品(R&D Systems) (human, UniProt P18627 23-450, limits assumed)
T1 construct: also called sLAG-3蛋白; sLAG-3
T1 sequence (looked up): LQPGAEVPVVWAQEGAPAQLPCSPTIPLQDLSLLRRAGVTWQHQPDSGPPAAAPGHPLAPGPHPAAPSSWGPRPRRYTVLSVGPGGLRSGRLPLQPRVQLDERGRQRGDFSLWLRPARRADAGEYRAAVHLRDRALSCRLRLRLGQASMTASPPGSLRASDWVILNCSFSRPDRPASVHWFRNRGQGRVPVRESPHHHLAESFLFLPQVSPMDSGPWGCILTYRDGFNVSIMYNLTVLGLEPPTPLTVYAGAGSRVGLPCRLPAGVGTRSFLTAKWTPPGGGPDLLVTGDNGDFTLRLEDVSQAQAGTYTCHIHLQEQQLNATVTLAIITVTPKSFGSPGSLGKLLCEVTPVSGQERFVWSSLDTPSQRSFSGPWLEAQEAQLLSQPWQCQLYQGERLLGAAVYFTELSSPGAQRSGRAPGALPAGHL


Key:
[1] = biological target: T1, 可溶性LAG-3蛋白标准品(R&D Systems); test: sandwich ELISA, wells pre-coated with 4E12
[2] = biological target: T1, 可溶性LAG-3蛋白标准品(R&D Systems); test: sandwich ELISA of the kit (4F4 and 4E12 as the antibody pair)

Row | binding result [1] | binding result [2] | Binder
1 | binds |  | LAG-3-4E12抗体 (antibody, V domains shown, Mouse (BALB/c) hybridoma monoclonal antibody; also called LAG-3-4E12单克隆抗体; 抗LAG-3单抗(克隆:4E12)) VH: EVKLVESGGGLVQPGGSLKLSCAVSGFAIRSYDMSWVRQTPEKRLEWVATISSGGSYSYYPDSVKGRFTISRDNARNTLYLQMSSLRSEDTALYYCASLSTAPAYWGQGTLVTVSA VL: DIVMTQSQKFMSTSVGDRVSVTCKASQNVGTNVAWYQQKPGQSPKALIYSASYRYSGVPDRFTGSGSGTDFTLTISNVQSEDLAEYFCQQYNTYPHMYTFGGGTKLEIK
2 |  | binds | LAG-3-4F4抗体 (antibody, V domains shown, Mouse (BALB/c) hybridoma monoclonal antibody; also called 抗人LAG-3-4F4单克隆抗体; LAG-3包被抗体) VH: QLQLKESGPEVVRPGVSVKISCKGSGYTFTDYAMYWVKQSHAKSLEWIGVISTYNGNTNYNQRFKGKATMTVDKSSSTAYMELARLTSEDSAIYYCARERGAMDYWGQGTSVTVSS VL: DVLMTQTPLSLPVSLGDQASISCRSSQSIVHNNGNTYLEWYLQKPGQSPKLLIYKVSSRFSGVPDRFSGSGSGTDFTLKISRVEAEDLGIYYCFQGSHVPPTFGGGTKLEIK
